# Laboratory results reported in paper PMC4888959 (Molecular microbiology, 2015).
# T1: CsrD^ΔHAMP (MBP-tagged CsrD residues 192–646) (E. coli, UniProt P13518 192-646)
# T1 sequence (looked up): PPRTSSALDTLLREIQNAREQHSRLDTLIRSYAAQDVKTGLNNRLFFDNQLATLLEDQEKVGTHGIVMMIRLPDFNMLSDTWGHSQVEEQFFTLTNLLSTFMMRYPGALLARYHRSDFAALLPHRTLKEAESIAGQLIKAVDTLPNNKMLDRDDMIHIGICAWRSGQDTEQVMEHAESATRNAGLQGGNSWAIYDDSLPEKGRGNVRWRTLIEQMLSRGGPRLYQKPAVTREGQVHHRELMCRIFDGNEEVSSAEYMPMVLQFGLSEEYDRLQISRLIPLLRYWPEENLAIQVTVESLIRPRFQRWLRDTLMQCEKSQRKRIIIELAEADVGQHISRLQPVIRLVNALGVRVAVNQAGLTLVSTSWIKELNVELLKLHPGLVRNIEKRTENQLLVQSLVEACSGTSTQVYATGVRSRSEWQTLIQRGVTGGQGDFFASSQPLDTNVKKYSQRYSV
# B1: CsrD^ΔEAL (MBP-tagged CsrD residues 156–385) (domain or fragment, E. coli, UniProt P13518 156-385, looked up)
# chain: RWLQRQLAGQELLETRATRILNGERGSNVLGTIYEWPPRTSSALDTLLREIQNAREQHSRLDTLIRSYAAQDVKTGLNNRLFFDNQLATLLEDQEKVGTHGIVMMIRLPDFNMLSDTWGHSQVEEQFFTLTNLLSTFMMRYPGALLARYHRSDFAALLPHRTLKEAESIAGQLIKAVDTLPNNKMLDRDDMIHIGICAWRSGQDTEQVMEHAESATRNAGLQGGNSWAIY
# B2: His-tagged EIIA^Glc (enzyme IIA^Glc of the glucose-specific PTS), unphosphorylated (natural protein, E. coli, UniProt P69783 1-169, looked up)
# chain: MGLFDKLKSLVSDDKKDTGTIEIIAPLSGEIVNIEDVPDVVFAEKIVGDGIAIKPTGNKMVAPVDGTIGKIFETNHAFSIESDSGVELFVHFGIDTVELKGEGFKRIAEEGQRVKVGDTVIEFDLPLLEEKAKSTLTPVVISNMDEIKELIKLSGSVTVGETPVIRIKK
# B3: CsrD^ΔGGDEF (MBP-tagged CsrD residues 156–223 and 393–646) (domain or fragment, E. coli, UniProt P13518 156-223, looked up)
# chain: RWLQRQLAGQELLETRATRILNGERGSNVLGTIYEWPPRTSSALDTLLREIQNAREQHSRLDTLIRSYGRGNVRWRTLIEQMLSRGGPRLYQKPAVTREGQVHHRELMCRIFDGNEEVSSAEYMPMVLQFGLSEEYDRLQISRLIPLLRYWPEENLAIQVTVESLIRPRFQRWLRDTLMQCEKSQRKRIIIELAEADVGQHISRLQPVIRLVNALGVRVAVNQAGLTLVSTSWIKELNVELLKLHPGLVRNIEKRTENQLLVQSLVEACSGTSTQVYATGVRSRSEWQTLIQRGVTGGQGDFFASSQPLDTNVKKYSQRYSV
# B4: EAL (MBP-tagged EAL domain of CsrD, residues 393–646) (domain or fragment, E. coli, UniProt P13518 393-646, looked up)
# chain: GRGNVRWRTLIEQMLSRGGPRLYQKPAVTREGQVHHRELMCRIFDGNEEVSSAEYMPMVLQFGLSEEYDRLQISRLIPLLRYWPEENLAIQVTVESLIRPRFQRWLRDTLMQCEKSQRKRIIIELAEADVGQHISRLQPVIRLVNALGVRVAVNQAGLTLVSTSWIKELNVELLKLHPGLVRNIEKRTENQLLVQSLVEACSGTSTQVYATGVRSRSEWQTLIQRGVTGGQGDFFASSQPLDTNVKKYSQRYSV
# B5: CsrD^ΔTM (MBP-tagged CsrD residues 156–646, transmembrane domains replaced with MBP) (domain or fragment, E. coli, UniProt P13518 156-646, looked up)
# chain: RWLQRQLAGQELLETRATRILNGERGSNVLGTIYEWPPRTSSALDTLLREIQNAREQHSRLDTLIRSYAAQDVKTGLNNRLFFDNQLATLLEDQEKVGTHGIVMMIRLPDFNMLSDTWGHSQVEEQFFTLTNLLSTFMMRYPGALLARYHRSDFAALLPHRTLKEAESIAGQLIKAVDTLPNNKMLDRDDMIHIGICAWRSGQDTEQVMEHAESATRNAGLQGGNSWAIYDDSLPEKGRGNVRWRTLIEQMLSRGGPRLYQKPAVTREGQVHHRELMCRIFDGNEEVSSAEYMPMVLQFGLSEEYDRLQISRLIPLLRYWPEENLAIQVTVESLIRPRFQRWLRDTLMQCEKSQRKRIIIELAEADVGQHISRLQPVIRLVNALGVRVAVNQAGLTLVSTSWIKELNVELLKLHPGLVRNIEKRTENQLLVQSLVEACSGTSTQVYATGVRSRSEWQTLIQRGVTGGQGDFFASSQPLDTNVKKYSQRYSV
# Key:
# [1] = target: the molecule itself; test: SEC
# [2] = target: B4; test: pull-down
# [3] = target: T1, CsrD^ΔHAMP (MBP-tagged CsrD residues …); test: pull-down
# [4] = target: B2; test: pull-down
# [5] = target: B2; test: SEC
binder,measurement,setting,value
B1,stoichiometry N,[1],4
B2,binding result,[2],binds
same,binding result,[3],binds
B3,stoichiometry N,[1],4
same,binding result,[4],binds
B4,stoichiometry N,[5],1 EAL per EIIA^Glc
B5,stoichiometry N,[1],4
